Experimental data from paper doi:10.1101/691972, “Structure of D. melanogaster ARC1 reveals a repurposed molecule with characteristics of retroviral Gag” (bioRxiv, 2019).

Legend:
[1] = molecular target: the molecule itself; assay: crystal structure; Se-Met dARC1 CA; orthorhombic (P212121, 1.7 Å) and hexagonal (P6122, 2.3 Å) crystal forms, each with a dimer in the asymmetric unit; NaCl, HEPES pH 7.5 type conditions, 18 °C
[2] = molecular target: the molecule itself; assay: SEC-MALS; SEC-MALLS; 25-400 µM loaded in 100 µL on Superdex INCREASE 200 10/300 GL; 20 mM Tris-HCl, 150 mM NaCl, 0.5 mM TCEP, 3 mM NaN3, pH 8.0

B1: Se-Met substituted dARC1 CA (residues S39-N205) (domain or fragment, Drosophila melanogaster)
chain: SRGKGNFSACTHSFGGTRDHDVVEEFIGNIETYKDVEGISDENALKGISLLFYGMASTWWQGVRKEATTWKEAIALIREHFSPTKPAYQIYMEFFQNKQDDHDPIDTFVIQKRALLAQLPSGRHDEETELDLLFGLLNIKYRKHISRHSVHTFKDLLEQGRIIEHNNPLE
modifications: seleno-methionine substituted (incorporation confirmed by ESI-MS)
notes: dARC1, Drosophila melanogaster, Uniprot Q7K1U0, residues 39-205 (CA domain); the added N-terminal Met was processed; Protein of the two solved crystal forms (orthorhombic and hexagonal); also called SeMet dARC1 CA; seleno-methionine derivative protein; source: E. coli B834 (DE3) in seleno-methionine medium, purified by the identical procedure (Ni-NTA, carboxypeptidase A, SEC); not shown: His6, …
binding result [1]: binds

B2: dARC1 CA (capsid domain region of D. melanogaster dARC1, residues S39-N205) (domain or fragment, Drosophila melanogaster)
chain: SRGKGNFSACTHSFGGTRDHDVVEEFIGNIETYKDVEGISDENALKGISLLFYGMASTWWQGVRKEATTWKEAIALIREHFSPTKPAYQIYMEFFQNKQDDHDPIDTFVIQKRALLAQLPSGRHDEETELDLLFGLLNIKYRKHISRHSVHTFKDLLEQGRIIEHNNPLE
notes: dARC1, Drosophila melanogaster, Uniprot Q7K1U0, residues 39-205 (CA domain); the added N-terminal Met was processed (confirmed by ESI-MS); Native (non-SeMet) protein used for SEC-MALLS and AUC; also called dARC CA; dARC1 CA (S39-N205); source: E. coli BL21 (DE3), purified (Ni-NTA, carboxypeptidase A digestion of the His-tag, Superdex 75 SEC); not shown: His6, C-terminal, cleaved
stoichiometry N [2]: 2

B3: dARC1 CA (F133A) (domain or fragment, Drosophila melanogaster)
chain: SRGKGNFSACTHSFGGTRDHDVVEEFIGNIETYKDVEGISDENALKGISLLFYGMASTWWQGVRKEATTWKEAIALIREHFSPTKPAYQIYMEFAQNKQDDHDPIDTFVIQKRALLAQLPSGRHDEETELDLLFGLLNIKYRKHISRHSVHTFKDLLEQGRIIEHNNPLE
notes: dARC1, Drosophila melanogaster, Uniprot Q7K1U0, residues 39-205 (CA domain) with F133A; also called F133A mutation; source: E. coli BL21 (DE3), purified
binding result [2]: binds
